Test: label from the status in PepcDB records
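Note: failed if final PepcDB status was selected cloned or expressed and not failed if soluble or beyond.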

**Q.** Which protein production does the source give for “MLRGDILDSKRTSIMTRFSSLLLALSVLLLPLRPAQGQPAERTSSLTVEQIMQAPETWIGDWPTNARWHESGQALYFNWNPGGDFPSDSLYKVSRSGGAPQKVSPAERRSNPPTFDGWHHGEHVYTDDFSRKVYAADGDLYLYNRETDTQTRLTDTPAREGNPRFGLEEDRVLFERDDNLFSVHLSTGQIRQLTNVQSGREPQEGAPSPRERFLEEQQLELFETLRERNEEEEQADEARERDREADDPPPPFYTGDAEVSALRMDPTERFVTIAQQSQPDAADPTQVIDYVTESGQADVRRARPKVGIPPGDFALHVQDLKRDTTIAVNLHQLPGAYDVPAYRQEQGAELDSSEAKRALYSYGPYWSADGDHGVLVVRADNNKDRWIARLDPETGDLTVLDRQHDTAWIGGPGISAYGGPGNVGWMPDGEHFYFQSEATGYSHLYTVDVETGETTQLTSGDFEVLDARLSQDGSTWTLTTNRHSPHQQHVERMPADGGDITRLTQMTGTHDAVLSPDGTRLATLYSTTNQPADLYLKDATADADPVRITESPTDEWAAYDWRMPELTRFEASDGVEVPAHVFRPDNPNGAAVFFVHGAGYLQNVLKDFPPYFREYMFHNMLTDLGYTVVDVDYRGSAGYGRDWRTAVYRHMGGRDLQDYVDAAKWVGDTYGIPAERRFIYGGSYGGFMTLMALFTEPEHFGGGAALRSVTDWAHYNDVYTSNILNTPQTDSLAYARSSPIYHAEGLEDPLLMPHGLVDTNVQPQDIFRLTQRLIELGKENWELAIYPVEGHGFEEPSSWTDEYRRIFELIQESVGPERPQN” here?
**A.** failed

**Q.** With “MTPRRHDNDYERRKWRQVAGHFGMGAAFGALFAGIVLFNNYFGLSSVIATSEAPTLVRIIFVVGVAGSFAFMAAITGFLFLVHED” as the sequence, how does the protein production read?
**A.** failed

**Q.** For “MTQQLNHAKVNQHPGQATLPETAEGQVRTYEVKTYGCQMNVHDSERLSGLLEEAGYVAAPEDTTPDLVVFNTCAVRENADMRLYGTLGNLRSVKEKNPGMQIAVGGCLAQKDKDTVVKKAPWVDVVFGTHNIGSLPTLLQRAEHNAQAEVEIVDSLEQFPSVLSAKRESAYAGWVSVSVGCNNTCTFCIVPSLRGKEQDRRPGDILAEVQALVDQGVTEVTLLGQNVNAYGVNFVDPELERDRSAFSKLLRACGEIEGLERVRFTSPHPAEFTSDVIDAMAETPNICPQLHMPLQSGSDKVLKEMRRSYRSKKFLSILDEVRAKIPHASITTDIIVGFPGETEEDFQATLDVVKKARFTSAYTFQYSPRPGTPAAEYENQLPKEVVQERYERLMVVQEQVCEEENQKLIGTTVELLVQAGGGRKNDATKRMSGRARDGRLVHFAPEGDIDGEIRPGDFVTVTVTEAKPFFLIADSGVQTHRRTKAGDNSAVGQVPTTAPIGVGLGLPQIGAPKVAPATESACCSIN”, which protein production is on record?
**A.** failed

**Q.** Which protein production does the source give for “MNKLLLVAAGGAVGSVARYLVGVGAMRVMGPGWPYGTFTVNVVGGFLMGCLASWLAHRGNTSSETWRVMLGVGVLGGFTTFSSFSLETALMIQKRAYGQAFTYSAASVLLAIAALFAGLLVARKVFA” here?
**A.** failed

**Q.** Which protein production does the source give for “MFYRLLFASLWYILPAYVANASACIFGGGTPVDLGKNFIDGRRLIGNGVTYRGCIFGILCGTLVGLIQGILVDFNIFNSLDFYGTVLDHVILAFFLSVGAIVGDAVGSFIKRRLNIERGKPAPLLDQLDFVIGALAFGYIVAPIPYEMIIIICLFTVFVHLLGNIIAYKLGIKDVWW” here?
**A.** failed

**Q.** For “MSENQSEEVQQIEKLYEFSERLNASKDKSQNVEDYEGIIKMSKTSMKAKQLASQLIPRYFKFFPSLSTEAFDAHMDCIDDGDLGVRVQAIRGLPLFCKDTPDILSKIVDVLVQLLNTEEPVERDAVHKALMSLLRQDPKASSTALFTHAGVTPTTDDQIREKVLNFIRDKVIPLKGELLKPQEEMERHITDLIKQSLEDVTGGEFKMFMDFLTSLSIFGGKAPPERMQELVEIIEGQADLNAQFEFSDTDHIDRLISCLQLALPFFARGAPSSRFLIYLNKHIIPVFDKLPEERKLDLLKALADISPYTTAQEARQLLPSIVELLKIYMPARKTGEEMNFTYVECLLYAFHHLAHKVPNATNSLCGYKIVTGQPSDRLGEDFSELNKDFTERLTIVEDLTKATMKKLTQGMTEHNKAMSAAKTDEEKASIVSTLTCAIFYFS”, which protein production is on record?
**A.** failed

**Q.** Which protein production does the source give for “MSSSSTSGLPATLPFEELAEAIKGRRSDYGHISGLQLDRFAPAEAWSSLPYRPVFVGDTETGVLHGGVVTAMLDESCGMAVQLALDGTRAIATLDLRIDYQKPATPGLDIKAHSVCYRTTRSIAFVRSTAYQESEDDPVATATACFMIGANRTNMLADRRMDSRSIPTLEAPEDPDGPFARSPFARCLGIRVNDDGTLTMPFSPKIIGNPILPAIHGGMTGAFLETTAIIGVARELGAAAPPKPIGLTINYLRSGRALDSFANVSIVKQGRRIVAFEARAWQDDADKPIATAFGHFMLRPTPGNDEE” here?
**A.** failed

**Q.** With “EIILANISDTVFVTDLSGKFTFICSNIDNIFGYSLAEVNAMGTVETLLGDFRFNEYELKEKGELKNLRHDVQDKQGKIHYLLINLKKVAINGGIYLYSCRDISE” as the sequence, how does the protein production read?
**A.** failed

**Q.** Which protein production does the source give for “MYLTVTPLSIVALTTAPPYFDTNGSISVPPPPNVIRSGLYESITLEYHKYTIKYCLTLITQTILFFLIVVCSMKVVIFGGTGLIGRAIYSSLPHDFYIVSRSAKGQEGQAHIIGLDEIDKIKECDVVINLSGYSIASKRWNRKVKEEIVRSRIDTTRLVVNFIRNLEKKPSAFLSGSAIGFYGHNTNKELTEEDPFGSGFLADLARSWEEEAMQADGICRTVLLRTANFLSPKGGFLSALINPKSKNVMYFGDGRQPVSWMHYADYVKAVEFVIENASIAGPVNMSSPQPVTFKEFAEAFSKSLGSHIRSIPEFLGKIALGSEMYRELMSGQKVIPKKLIQAGFKFDFPDINTAASSIASLMK” here?
**A.** failed

**Q.** Which protein production does the source give for “MVACRVRLGRHQGARAGRTVCPKHRLRARDAGSRECAALSAGCGRMGRMSEQSLPDGVRPQNADALPEYAERVLDMTELIPPGRVMTYGDVAEYLEEGGPRQVGRVMSLYGGGVPWWRVVRADGVLLAGHELEALDRYREEGTPLKEASRAAEGHLPRLDLKRARWDGEGRPQGHGGRAQGHT” here?
**A.** failed

**Q.** For “MADTRPERRFTRIDRLPPYVFNITAELKMAARRRGEDIIDFSMGNPDGATPPHIVEKLCTVAQRPDTHGYSTSRGIPRLRRAISRWYQDRYDVEIDPESEAIVTIGSKEGLAHLMLATLDHGDTVLVPNPSYPIHIYGAVIAGAQVRSVPLVEGVDFFNELERAIRESYPKPKMMILGFPSNPTAQCVELEFFEKVVALAKRYDVLVVHDLAYADIVYDGWKAPSIMQVPGARDVAVEFFTLSKSYNMAGWRIGFMVGNKTLVSALARIKSYHDYGTFTPLQVAAIAALEGDQQCVRDIAEQYKRRRDVLVKGLHEAGWMVEMPKASMYVWAKIPEPYAAMGSLEFAKKLLNEAKVCVSPGIGFGDYGDTHVRFALIENRDRIRQAIRGIKAMFRADGLLPASSKHIHENAE”, which protein production is on record?
**A.** failed

**Q.** With “MIDMFPMEKGEEQETYELIVRVFHKYVAPVYSENGVARFLGMLSPEGLSEMNNGKNSFVIVARDQSKIIGMISVINDSHIALFFVSPRYQGKGIGKNILDEAIKNCLNRNPELSAVTVSSSPNSKSFYEEAGFEVIGLEHHHHHH” as the sequence, how does the protein production read?
**A.** not failed

**Q.** Which protein production does the source give for “STQTDKALYNRLVPLVNGVREFSEIQLSRLKKLGIHKTDPSTLTEEEVRKFARLNIDPATITWQ” here?
**A.** not failed

**Q.** Which protein production does the source give for “DNAMEEEIQSIMKIERDLFLAIKNKEFVIHYQPKVDSSTGNIIGSEALIRWLHPSLGMVGPNKFIPIAEKNGLINNIGRWLIQEVFITINKWISEGINVLPVSINLSRVELYKNDLVDFFKLMFNTYNIPKELIELEITETTALRDVKFISERLYEIKSLGMNISLDDFGVGNSNFINLKGIPLDIIKIDRSLILDIVTNTKTKFMVKAIVNLSHDLNVTVICEGVEDMHQVKVLSELGCNFIQGYVFFKP” here?
**A.** failed

**Q.** For “MDLGILSQLLILLFVSMLLGVLFSKFKIPDVVAYILTGVLVGNGFLKIVSPSVPISDIESVSLFFIILAIGVEANTEYIYGNVRRSIILTISSFIAPSMLGFLYLQAVAHLPIIPAFVLSMSVGVPSISIISVLLMRYDLLKLNAGRLILSSVVLTDTSAFIILSSTYESVTKVLISFGFVVLFLFAIWLFDILIRRRAGRIIEWISRRETDNNMEYILFSLVIIAGLLVSTLFEFIGITYVLGAFYAGILIHEASIGQKYHKIILNTIKRINDSFFIPLFFSIAGISMILPKISIFMIFLPALLILMGASGGLTYLVSHRLIRSLEPIKVVSILGGRGAVGVIIATIAFQSGIIDVAVYSLALIGTVIFSLVMTPLVSIGNAPSQNDDVRYS”, which protein production is on record?
**A.** failed

**Q.** For “MTEVDPRFEAWLSLETGIDAPSLGANALERAVLERARAMLAESSPRRPAVADAAALDAYWLRLNTWPEERQALIEALVVPETWFFRDREAFAELARLAGERLVREPARVLRILSVACSTGEEPYSAAMALLDAGIGPARFAIDAIDISGRAIDQAEHALYGRNAFRGYPLTFRDRYFSEVADGWQLNERVRRRVRFTQGNLFDETMDGEARYDFIFCRNALTYFHRDAQDHAIRRLDAQLADGGVIFVGPAETGPMMRHAMTPARSPLAFAFVRTPPAAKVPARAAPSQQQAPRPAVTGSPTVKPAAPEAASLAVRGGGAALPEHSAAVPVSLSTPLSVPPLRKVLPDLDDARQLTDAGRFDEAEYIIQDIVSLSAPEADTFYLLGVIAHARGRYADAGDFYRKTLYLDPEHYEALTHLAAVLDASGDAVGARQLMLRAQRAMARRDPAHPDAPNRPRGAPGLRRS”, which protein production is on record?
**A.** failed

**Q.** Which protein production does the source give for “MPPKTPRKTAATAAAAAAEPPAPPPPPPPEEDPEQDSGPEDLPLVRLEFEETEEPDFTALCQKLKIPDHVRERAWLTWEKVSSVDGVLGGYIQKKKELWGICIFIAAVDLDEMSFTFTELQKNIEISVHKFFNLLKEIDTSTKVDNAMSRLLKKYDVLFALFSKLERTCELIYLTQPSSSISTEINSALVLKVSWITFLLAKGEVLQMEDDLVISFQLMLCVLDYFIKLSPPMLLKEPYKTAVIPINGSPRTPRRGQNRSARIAKQLENDTRIIEVLCKEHECNIDEVKNVYFKNFIPFMNSLGLVTSNGLPEVENLSKRYEEIYLKNKDLDARLFLDHDKTLQTDSIDSFETQRTPRKSNLDEEVNVIPPHTPVRTVMNTIQQLMMILNSASDQPSENLISYFNNCTVNPKESILKRVKDIGYIFKEKFAKAVGQGCVEIGSQRYKLGVRLYYRVMESMLKSEEERLSIQNFSKLLNDNIFHMSLLACALEVVMATYSRSTSQNLDSGTDLSFPWILNVLNLKAFDFYKVIESFIKAEGNLTREMIKHLERCEHRIMESLAWLSDSPLFDLIKQSKDREGPTDHLESACPLNLPLQNNHTAADMYLSPVRSPKKKGSTTRVNSTANAETQATSAFQTQKPLKSTSLSLFYKKVYRLAYLRLNTLCERLLSEHPELEHIIWTLFQHTLQNEYELMRDRHLDQIMMCSMYGICKVKNIDLKFKIIVTAYKDLPHAVQETFKRVLIKEEEYDSIIVFYNSVFMQRLKTNILQYASTRPPTLSPIPHIPRSPYKFPSSPLRIPGGNIYISPLKSPYKISEGLPTPTKMTPRSRILVSIGESFGTSEKFQKINQMVCNSDRVLKRSAEGSNPPKPLKKLRFDIEGSDEADGSKHLPGESKFQQKLAEMTSTRTRMQKQKMNDSMDTSNKEEK” here?
**A.** failed

**Q.** With “MEIHYAAKQDKCLVRPVIRDHTGSQSYRSTTSILTDHLRRNHHSHGAIASRDYLSYSWNSQLRRFSSEGDGNNASEDSRFPLNKDKMGKEKSTVGVEHFDSHAQLGVQDQIEWLNNEKRASESRKESPFLNKRERLKNEFLRRIQPWETIQLSWESFPYYVHEHTKDTLVECVSSHIKQKSMTSKYGARLDSSSGRILLQSVPGTELYRERLVRALARDTQVPLLVLDSSVLAPYDFADDYNEESESDDDIAESDQCTSQSEAEEETDGDNDDTSSSETKIEGTDDEERYLEISKEVLKKLGADIEDIEKRMSEQLYGSSEVSEAAAVDQDDKAKRPLKKGSQFVTCALCYLHQMMSV” as the sequence, how does the protein production read?
**A.** failed
